These results are taken from PMC5737657.

As a reminder, the Kd is the free concentration of one partner at which half of the binding sites on the other are occupied at equilibrium, for simple one-to-one binding. Low values mean tighter binding, high ones weaker binding.

For data set [1], the target named is His6-VapB26 antitoxin (NMR) (Mycobacterium tuberculosis, UniProt O53778 1-71). As to the kind of experiment: NMR.
The target in data set [2] is T1, VapB26 antitoxin (ITC/EMSA) (Mycobacterium tuberculosis, UniProt O53778 1-71). The experiment in a line: ITC.
For data set [3], the target named is T1, VapB26 antitoxin (ITC/EMSA). As to the kind of experiment: EMSA. For orientation: A gel shift assay detects complexes by their altered migration in electrophoresis.
Data set [4] shares this target. As to the kind of experiment: ITC. This is another data set of the same source. For orientation: Isothermal titration calorimetry measures the heat released or taken up as one component is titrated into another.

T1 sequence (O53778 whole entry): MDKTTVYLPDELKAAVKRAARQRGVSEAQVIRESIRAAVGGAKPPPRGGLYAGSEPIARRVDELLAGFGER
Sequence of His6-VapB26 antitoxin (NMR) (O53778 whole entry): as above

B1: control DNA 'X' (dsDNA)
DNA 1: GATTTTTTTTGATTTTTTT
DNA 2: AAAAAAATCAAAAAAAATC
Turning to B1, the binding result in data set [1] and in data set [2] was “no binding” each time.

B2: palindromic DNA 'a' (dsDNA)
DNA 1: TATTTTAATAACTTAAAAGT
DNA 2: ACTTTTAAGTTATTAAAATA
B2: in data set [3], the binding result is listed as “no binding”.

B3: palindromic DNA 'b' (dsDNA)
DNA 1: TAATAGAATAATAAGTATCACTCCTTTA
DNA 2: TAAAGGAGTGATACTTATTATTCTATTA
For B3, the binding result in data set [3] is “no binding”.

B4: vapBC26 promoter DNA (19 bp) (dsDNA)
DNA 1: TTCGCGGCTACGCCGACAA
DNA 2: TTGTCGGCGTAGCCGCGAA
Molecule B4 came in with a Kd in data set [4] of 4.69 ± 0.81 µM.
